Where a chain is given by its changes, count along the chain named.
B1: aptamer ID 8 (ssRNA)
RNA: CGGAUACUAGGGCAUUAAUGUUACCAGUGUAGUCCG
modifications: 2'-F at U8,U16,U21,U28,U30; 2'-OH at G12,G27,G29; all others 2'-OMe; 5' NH2; 3' idT
B2: aptamer ID 3(21) (ssRNA)
RNA: B1 RNA with C1G, G36C
modifications: 2'-F at U8,U16,U21,U28,U30; 2'-OH at G12,G27,G29; all others 2'-OMe; 5' PEG 40K (GL2-400TS)-C6; 3' idT
B3: aptamer ID 9 (ssRNA)
RNA: B1 RNA with G2C, C35G
modifications: 2'-F at U8,U16,U21,U28,U30; 2'-OH at G12,G27,G29; all others 2'-OMe; 5' NH2; 3' idT

How the values were obtained:
Details in all cases: tags: Peprotech
[1] = molecular target: T1, FGF2 (Homo sapiens, UniProt P09038 P09038:135-288); experiment: cell_activity; HUVEC proliferation
T1 sequence (P09038 135-288, one chain of several): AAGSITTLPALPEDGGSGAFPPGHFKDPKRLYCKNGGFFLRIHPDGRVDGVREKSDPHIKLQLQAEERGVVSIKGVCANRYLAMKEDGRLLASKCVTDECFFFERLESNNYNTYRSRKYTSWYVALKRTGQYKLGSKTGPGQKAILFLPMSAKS
Experimental: (§1) Human umbilical vein endothelial cells (HUVEC) were seeded in a 96 well flat bottom plate at 5×10³ cells per well, and cultured overnight using a medium EGM-2 Bullet Kit for endothelial cells (CC-3162 manufactured by Lonza) containing 2% fetal bovine serum and growth factors. Thereafter, the medium was discarded, the cells were washed twice with PBS buffer, and a mixture of the aptamer shown by aptamer ID 3(21) (5, 2.5, 1, 0.5 nM) and FGF2 (final concentration 0.5 nM), dissolved in a medium exclusively for endothelial cells containing 2% fetal bovine serum, was added. After 72 hr, viable cell number was examined using Cell Counting Kit-8. For the measurement of absorbance, a microplate reader (450 nm) was used. One sample was measured at n=3. As a positive control, anti-FGF2 antibody Anti-FGF, basic (Ab-3) Mouse mAb (3H3) (manufactured by Calbiochem) were used. With the OD value per well obtained by the addition of FGF2 alone and culture of the cells for 3 days as inhibitory activity 0%, and that of the cell obtained by FGF2 free culture for 3 days as inhibitory activity 100%, the inhibitory activity of the aptamer was calculated from the OD value per well obtained by culturing with the addition of a mixture of FGF2 and the aptamer. As a result, it was shown that the aptamer shown by aptamer ID 3(21) has a high inhibitory activity against FGF2.
By a method similar to that in Example 5, the inhibitory activity of the aptamers shown by aptamer IDs 8-12 was measured.

[2] = molecular target: T1, FGF2; experiment: inhibition; SPR inhibition of FGF2-FGFR1alpha(IIIc); each 0.1 uM
Experimental: BIAcore2000 manufactured by BIAcore was used for the measurement. As directed in BIAcore Company's protocol, Protein A (21181, manufactured by PIERCE) was immobilized on a CM5 sensor chip. About 1,000 RU of human FGFR1α (IIIc), R2α (IIIc), R3 (IIIc), R4 (manufactured by R&D Systems) fused with the Fc portion of IgG (manufactured by R&D systems) was each immobilized thereon. As analyte, a mixture of FGF2 (0.1 μM), heparin (0.1 μM) (manufactured by Pfizer) and aptamer (0.15 μM) was flown. Before an inhibitory test, a mixture of FGF2 and heparin was confirmed to bind to 4 kinds of receptors. […] A sensorgram showing that the aptamer shown by aptamer ID 1 inhibits binding of FGF2 and FGFR1α(IIIc), 2α(IIIc), 3(IIIc), 4 is shown in FIG. 2.
In addition, the inhibitory rate against each of the 4 kinds of receptors was determined. The inhibitory rate was determined with the maximum binding amount of the FGF2 and heparin mixture as 0, and the binding amount with an injection buffer alone as 100. The binding amount here means the RU value of the peak top of sensorgram. The inhibitory rate was calculated. […] The inhibitory rate of other aptamers was not more than 50%.
To enhance FGF2-binding activity, stability, drug deliverability and the like, the nucleic acids shown by aptamer IDs 3(1)-3(40), aptamer IDs 4 and 4(1)-4(4), aptamer ID 5 and aptamer ID 6 were chemically synthesized based on the aptamer shown in SEQ ID NO: 3. Here, the aptamer shown by aptamer ID 4 is the aptamer shown by aptamer ID 3(19) wherein one G(M) at the 5′-terminal and one C(M) at the 3′-terminal have been deleted. The aptamer shown by aptamer ID 5 is the aptamer shown by aptamer ID 3(19) wherein one G(M) has been added at the 5′-terminal and one C(M) has been added at the 3′-terminal. The aptamer shown by aptamer ID 6 is the aptamer shown by aptamer ID 3(19) wherein A(M) alone has been added at the 5′-terminal. These nucleic acids were produced by chemical synthesis.

[3] = molecular target: T1, FGF2; experiment: cell_activity; HUVEC proliferation, FGF2 0.5 nM
Experimental: as §1

[4] = molecular target: T1, FGF2; experiment: cell_activity; HUVEC proliferation, FGF2 0.58 nM
Experimental: as §1
By a method similar to the above except that the 96 well flat bottom plate was changed to a collagen-coated one, the activity of various aptamers was evaluated. The concentration of FGF2 added was 0.58 nM. As a negative control RNA, Macugen (registered trade mark) sequence without addition of PEG, and with C6 modification of the 5′-terminal and idT modification of the 3′-terminal was used.

Binder | IC50 [1] [nM] | activity [2] [%] | IC50 [3] [nM] | IC50 [4] [nM]
B1 | 5.6 | – | – | –
B2 | – | 97 | ~1 | –
GGGAUACUAGGGCGUUAACGUUACCAGUGUAGUCCC (ssRNA, 2'-F at U8,U16,U21,U28,U30; 2'-OH at G12,G27,G29; all others 2'-OMe) [aptamer ID 10] | 4.9 | – | – | –
GGGAUACUAGGGCCUUAAGGUUACCAGUGUAGUCCC (ssRNA, 2'-F at U8,U16,U21,U28,U30; 2'-OH at G12,G27,G29; all others 2'-OMe) [aptamer ID 11] | 13 | – | – | –
GGGAUACUAGGGCAUUAAUGUUACCAGUGUAGUCCC (ssRNA, 2'-F at U8,U16,U21,U28,U30; 2'-OH at G12,G27,G29; all others 2'-OMe; 3' idT) [aptamer ID 3(19)] | 3.4 | 93 | – | –
GGGAUACUAGGGCAUUUAUGUUACCAGUGUAGUCCC (ssRNA, 2'-F at U8,U16,U21,U28,U30; 2'-OH at G12,G27,G29; all others 2'-OMe) [aptamer ID 12] | 2.3 | – | – | –
B3 | 3.7 | – | – | –
GGGGAUACUAGGGCAUUAAUGUUACCAGUGUAGUCCCC (ssRNA, 2'-F at U9,U17,U22,U29,U31; 2'-OH at G13,G28,G30; all others 2'-OMe; 3' idT) [aptamer ID 5] | – | 94 | – | 2.6
AGGGAUACUAGGGCAUUAAUGUUACCAGUGUAGUCCC (ssRNA, 2'-F at U9,U17,U22,U29,U31; 2'-OH at G13,G28,G30; all others 2'-OMe; 3' idT) [aptamer ID 6] | – | 93 | – | 3.1

From patent US20170157165, “APTAMER FOR FGF2 AND USE THEREOF” (RIBOMIC INC., published 2017)
